Results: US20230257473A1 (TENEOBIO, published 2023)

T1: human BCMA protein (human, UniProt Q02223 1-54, limits assumed)
T1 sequence (looked up): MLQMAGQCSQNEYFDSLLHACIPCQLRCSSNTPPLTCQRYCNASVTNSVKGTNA

B1: anti-BCMA heavy chain-only antibody (UniAb) with the VH of SEQ ID NO: 12 (antibody, V domains shown)
VH: QVQLVESGGGLVQPGGSLRLSCVASGFTFSSNAMSWVRQAPGKGLEWVSAISGSGDYTHYSDSVKGRFTISRDNSKNTLYLQMNSLRAEDTAVYYCAKEVPGGPLVDFDSRGQGTLVTVSS
notes: Heavy chain-only antibody from UniRat; also called Clone ID No: 316302
B2: AntiX**BCMA_F7E_F7E (bispecific antibody, part only; not given: other chains of three-chain format, not shown: another chain or arm of the molecule)
tandem VH: QVQLVESGGGLVQPGGSLRLSCVASGFTFSSNAMSWVRQAPGKGLEWVSAISGSGDYTHYSDSVKGRFTISRDNSKNTLYLQMNSLRAEDTAVYYCAKEVPGGPLVDFDSRGQGTLVTVSSGGGGSGGGGSQVQLVESGGGLVQPGGSLRLSCVASGFTFSSNAMSWVRQAPGKGLEWVSAISGSGDYTHYSDSVKGRFTISRDNSKNTLYLQMNSLRAEDTAVYYCAKEVPGGPLVDFDSRGQGTLVTVSS

Tests used:
[1] = target: recombinant BCMA (R&D Systems, catalog no. 193-BC) (human) (UniProt Q02223); assay: competitive ELISA, plate-bound BCMA; Ab 200.000 ng/mL; competitor APRIL 7.81 ng/mL
[2] = target: BCMA on BCMA-expressing cells (H929 / NCI-H929, MM1.S, U266, Daudi) (human) (UniProt Q02223); assay: flow cytometry on MM1.S cells; antibody 0000 ng/ml (background)
[3] = target: recombinant BCMA (R&D Systems, catalog no. 193-BC) (human) (UniProt Q02223); assay: competitive ELISA, plate-bound BCMA; Ab 0.020 ng/mL; competitor APRIL 62.50 ng/mL
[4] = target: recombinant BCMA (R&D Systems, catalog no. 193-BC) (human) (UniProt Q02223); assay: competitive ELISA, plate-bound BCMA; Ab 2.000 ng/mL; competitor APRIL 31.25 ng/mL
[5] = target: recombinant BCMA (R&D Systems, catalog no. 193-BC) (human) (UniProt Q02223); assay: competitive ELISA, plate-bound BCMA; Ab 200.000 ng/mL; competitor APRIL 62.50 ng/mL
[6] = target: BCMA on BCMA-expressing cells (H929 / NCI-H929, MM1.S, U266, Daudi) (human) (UniProt Q02223); assay: flow cytometry on MM1.S cells; antibody 25.000 ng/ml
[7] = target: recombinant BCMA (R&D Systems, catalog no. 193-BC) (human) (UniProt Q02223); assay: competitive ELISA, plate-bound BCMA; Ab 0.020 ng/mL; competitor APRIL 7.81 ng/mL
[8] = target: recombinant BCMA (R&D Systems, catalog no. 193-BC) (human) (UniProt Q02223); assay: competitive ELISA, plate-bound BCMA; Ab 2.000 ng/mL; competitor APRIL 7.81 ng/mL
[9] = target: BCMA on BCMA-expressing cells (H929 / NCI-H929, MM1.S, U266, Daudi) (human) (UniProt Q02223); assay: flow cytometry on H929 cells; antibody 0.098 ng/ml
[10] = target: recombinant BCMA (R&D Systems, catalog no. 193-BC) (human) (UniProt Q02223); assay: competitive ELISA, plate-bound BCMA; Ab 0.200 ng/mL; competitor APRIL 7.81 ng/mL
[11] = target: recombinant BCMA (R&D Systems, catalog no. 193-BC) (human) (UniProt Q02223); assay: competitive ELISA, plate-bound BCMA; Ab 2.000 ng/mL; competitor APRIL 0.00 ng/mL
[12] = target: recombinant BCMA (R&D Systems, catalog no. 193-BC) (human) (UniProt Q02223); assay: competitive ELISA, plate-bound BCMA; Ab 2.000 ng/mL; competitor APRIL 250.00 ng/mL
human BCMA protein = target: T1, human BCMA protein; assay: ELISA protein and cell-binding assays
[13] = target: recombinant BCMA (R&D Systems, catalog no. 193-BC) (human) (UniProt Q02223); assay: competitive ELISA, plate-bound BCMA; Ab 0.020 ng/mL; competitor APRIL 125.00 ng/mL
[14] = target: recombinant BCMA (R&D Systems, catalog no. 193-BC) (human) (UniProt Q02223); assay: competitive ELISA, plate-bound BCMA; Ab 200.000 ng/mL; competitor APRIL 500.00 ng/mL
[15] = target: recombinant BCMA (R&D Systems, catalog no. 193-BC) (human) (UniProt Q02223); assay: competitive ELISA, plate-bound BCMA; Ab 0.020 ng/mL; competitor APRIL 31.25 ng/mL
[16] = target: BCMA on BCMA-expressing cells (H929 / NCI-H929, MM1.S, U266, Daudi) (human) (UniProt Q02223); assay: flow cytometry on MM1.S cells; antibody 1.560 ng/ml
[17] = target: recombinant BCMA (R&D Systems, catalog no. 193-BC) (human) (UniProt Q02223); assay: competitive ELISA, plate-bound BCMA; Ab 0.002 ng/mL; competitor APRIL 0.00 ng/mL
[18] = target: BCMA on BCMA-expressing cells (H929 / NCI-H929, MM1.S, U266, Daudi) (human) (UniProt Q02223); assay: flow cytometry on MM1.S cells; antibody 100.000 ng/ml
[19] = target: BCMA on BCMA-expressing cells (H929 / NCI-H929, MM1.S, U266, Daudi) (human) (UniProt Q02223); assay: flow cytometry on H929 cells; antibody 0.781 ng/ml
[20] = target: BCMA on BCMA-expressing cells (H929 / NCI-H929, MM1.S, U266, Daudi) (human) (UniProt Q02223); assay: flow cytometry on MM1.S cells; antibody 12.500 ng/ml
[21] = target: BCMA on BCMA-expressing cells (H929 / NCI-H929, MM1.S, U266, Daudi) (human) (UniProt Q02223); assay: flow cytometry on H929 cells; antibody 50.000 ng/ml
[22] = target: BCMA on BCMA-expressing cells (H929 / NCI-H929, MM1.S, U266, Daudi) (human) (UniProt Q02223); assay: flow cytometry on H929 cells; antibody 12.500 ng/ml

Sequence of BCMA on BCMA-expressing cells (H929 / NCI-H929, MM1.S, U266, Daudi) (human) (Q02223 whole entry): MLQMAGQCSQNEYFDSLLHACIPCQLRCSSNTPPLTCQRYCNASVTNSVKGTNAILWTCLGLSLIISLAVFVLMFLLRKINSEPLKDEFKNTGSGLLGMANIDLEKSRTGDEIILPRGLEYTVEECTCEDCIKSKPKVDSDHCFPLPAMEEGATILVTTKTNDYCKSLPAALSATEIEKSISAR

Row | Binder | A450-A570 [1] | MFI [2] | A450-A570 [3] | A450-A570 [4] | A450-A570 [5] | MFI [6] | A450-A570 [7] | A450-A570 [8] | MFI [9] | A450-A570 [10] | A450-A570 [11] | A450-A570 [12] | A450-A570 [13] | A450-A570 [14] | A450-A570 [15] | MFI [16] | A450-A570 [17] | MFI [18] | MFI [19] | further results
1 | B1 | 2.51 | 2990 | 0.0629 | 0.0875 | 2.07 | 2130 | 0.0631 | 0.0895 | 5060 | 0.0643 | 0.0894 | 0.0837 | 0.064 | 0.482 | 0.0622 | 2110 | 0.0616 | 2440 | 5060 | binding result (human BCMA protein): binds
2 | B2 | 2.47 | 2990 | 0.0577 | 0.121 | 2.44 | 2340 | 0.0578 | 0.108 | 5070 | 0.0577 | 0.107 | 0.0921 | 0.0557 | 1.41 | 0.0551 | 2030 | 0.0578 | 4140 | 5020 | MFI [20]: 2180; MFI [21]: 10900; MFI [22]: 5680
